The results in this text go back to paper PMC11650718, “α-Amino-β-carboxymuconate-ε-semialdehyde decarboxylase catalyzes enol/keto tautomerization of oxaloacetate” (The Journal of Biological Chemistry, 2024).

The subject of one data set is T1, O=C(O)CC(=O)C(=O)O.
T1 construct: recombinant from pET16b-ACMSD, purified; Zn-dependent homodimer with Arg239* from adjacent subunit
Kind of data set: purified protein. The data set is classed as biochemical, Pseudomonas fluorescens. The note with it: HEPES pH 7.0, keto to enol form.

Substrate in the data set “purified protein”: O=C(O)CC(=O)C(=O)O
Put plainly: purified protein. The note with it: HEPES pH 7.0, Zn enzyme, keto to enol form.

Data set [1] concerns the molecule itself. Kind of data set: crystal structure; malonate-bound wild-type ACMSD, 10 mg/ml (270 uM); 50 mM malonate in place of Tacsimate, 0.1 M sodium citrate tribasic pH 5.6, 12% (w/v) PEG 3350; 2.21 A.

The term Km denotes the substrate concentration at which the rate is half of its maximum. The kcat is the number of substrate molecules converted per active site and unit of time at saturation. By kcat/Km is commonly meant the second-order rate constant that governs catalysis at low substrate concentration. With “ACMSD (pfACMSD) (Pseudomonas fluorescens; H228A)”, in the data set on O=C(O)CC(=O)C(=O)O, the Km turned out to be 570 ± 130 µM, the kcat amounted to 2.98 ± 0.35 s⁻¹ and the kcat/Km turned out to be 5200 M⁻¹ s⁻¹.

“ACMSD (pfACMSD) (Pseudomonas fluorescens; W194A)”: in the data set on O=C(O)CC(=O)C(=O)O, the Michaelis-Menten constant (Km) was 800 ± 80 µM, the kcat was 4.18 ± 0.25 s⁻¹ and the kcat/Km was found to be 5200 M⁻¹ s⁻¹.

B1: α-amino-β-carboxymuconate-ε-semialdehyde decarboxylase (ACMSD) from Pseudomonas fluorescens KU-7 (enzyme)
chain: MKKPRIDMHSHFFPRISEQEAAKFDANHAPWLQVSAKGDTGSIMMGKNNFRPVYQALWDPAFRIEEMDAQGVDVQVTCATPVMFGYTWEANKAAQWAERMNDFALEFAAHNPQRIKVLAQVPLQDLDLACKEASRAVAAGHLGIQIGNHLGDKDLDDATLEAFLTHCANEDIPILVHPWDMMGGQRMKKWMLPWLVAMPAETQLAILSLILSGAFERIPKSLKICFGHGGGSFAFLLGRVDNAWRHRDIVREDCPRPPSEYVDRFFVDSAVFNPGALELLVSVMGEDRVMLGSDYPFPLGEQKIGGLVLSSNLGESAKDKIISGNASKFFNINV
notes: ACMSD from Pseudomonas fluorescens KU-7, UniProt Q83V25; Zinc-dependent metalloenzyme; also called pfACMSD; wild-type ACMSD; source: stored in 25 mM HEPES pH 7.0
For the molecule B1, in the data set “purified protein”, the Km turned out to be 1120 ± 140 µM, the kcat was 6.51 s⁻¹ and the kcat/Km amounted to 5800 M⁻¹ s⁻¹. For the same molecule, the binding result in data set [1] is listed as “binds”.
